Results: publication doi:10.1101/2024.01.05.574350, “Heparan sulfate selectively inhibits the collagenase activity of cathepsin K” (bioRxiv, 2024)

Biological target: T1, mature cathepsin K (murine) (murine, UniProt P55097 115-329)
T1 construct: cathepsin K, murine; catalytic Cys25; 22 kDa as printed; No tag is named; also called CtsK; mature CtsK; source: 293-Freestyle cells, transient expression of pro-CtsK
T1 sequence (looked up): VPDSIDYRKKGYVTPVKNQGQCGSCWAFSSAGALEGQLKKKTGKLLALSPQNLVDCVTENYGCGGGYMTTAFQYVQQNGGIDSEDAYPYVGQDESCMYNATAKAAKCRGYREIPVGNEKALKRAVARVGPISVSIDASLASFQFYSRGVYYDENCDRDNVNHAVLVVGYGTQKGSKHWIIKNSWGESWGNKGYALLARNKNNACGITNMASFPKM
Assay: SEC; CtsK and Cst3 without HS, Superdex200 column
Conditions: both partners purified

B1: Cystatin C (natural protein, UniProt P21460 21-140, looked up)
chain: ATPKQGPRMLGAPEEADANEEGVRRALDFAVSEYNKGSNDAYHSRAIQVVRARKQLVAGVNYFLDVEMGRTTCTKSQTNLTDCPFHDQPHLMRKALCSFQIYSVPWKGTHSLTKFSCKNA
notes: Cystatin C (Cst3), 13 kDa as printed; The printed residues (Pro7, Met9, Leu10, Gly11, Ala12, Leu56-Gly59, Pro105-Lys107) fit mature mouse cystatin C as I recall it, not the human protein; human cystatin C (PDB 3GAX) was only the search model for molecular replacement; also called Cst3; Cts3
In the case of B1, the “stoichiometry N” value is reported as 1.
